The supplement of paper PMC10567573

B1: TRIM43 (parent)
chain: RAQMIRNEYRKLHPVLHKEEKQHL
B2: EHMT1 (parent)
chain: EEINKNISDFGRQQLLPPFPSLHQ

Variants of: B1
Assay: protein stability index of a GFP-peptide fusion (GPS, HEK-293T) (PSI 1-6); higher = more stable
Conditions: c terminus: a fixed tail appended
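Also: lentivirally expressed fusions sorted by FACS into six bins by GFP to DsRed ratio, PSI derived from sequencing read proportions per bin multiplied by bin number.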

Protein stability index: each site, then its substitutions
M4: L 3.2; R 3.11; H 3.46; I 2.6; K 3.2; S 3.07; Y 2.74; N 3.45; W 2.44; T 3.69; F 2.61; E 3.86; C 3.23; Q 2.8; D 3.53; P 3.73; V 3.39; G 3.66; A 3.49
Q3: V 2.63; R 2.81; A 2.67; C 2.68; E 3.48; S 3.22; F 2.33; P 3.39; W 2.79; H 3.13; K 3.7; I 2.78; G 3.04; Y 2.54; T 3.27; M 2.82; D 3.64; L 2.41; N 3.19
N7: F 2.44; C 3; E 2.32; A 2.39; G 3.08; D 3.35; I 2.57; H 3.28; K 3.44
I5: A 4.03; Q 3.89; N 4.04; H 3.56; S 3.67; V 3.15; E 4.06; G 3.79; W 2.87; C 2.02; D 4.2; Y 2.92; L 3.92; M 3.39; K 3.21; P 3.83
R6: L 2.15; Y 2.57; N 4.15; A 3.07; S 3.52; G 3.96; H 3.54; C 3.67; V 3.52; T 3.89; P 3.57; W 1.77; F 2.44; Q 3.63; I 1.89; K 3.39; M 2.19; D 4.3; E 3.48
A2: P 3.84; L 2.96; W 2.27; M 2.91; Q 3.09; G 3.61; H 3.26; F 1.95; Y 3.13; K 3.2; N 3.18; T 3.17; V 2.78; I 2.14; C 3.35; D 3.51; E 4.26; R 3.76; S 2.99
R1: Y 1.77; K 2.93; E 3.29; A 3.44; N 3.44; Q 3.04; F 1.92; V 3.99; D 3.89; S 3.78; W 1.92; I 2.01; C 2.17; H 3.47; P 3.38; T 2.85; M 2.47; L 2.33; G 3.55

Variants of: B2
Assay: as above
Conditions: c terminus: a fixed tail appended

Protein stability index: each site, then its substitutions
H23: R 3.08; Y 2.14; M 2.48; Q 3.02; K 3.61; P 3.17; G 3.14; D 3.85; A 3.4; T 3.39; C 2.66; I 2.93; F 2.38; V 2.97; L 2.53; E 3.59; W 2.6; S 2.86; N 3.07
Q24: S 2.5; H 2.43; L 3.78; C 1.91; M 2.77; V 2.65; G 2.53; T 2.34; W 3.45; K 3.55; Y 2.49; P 3.43; E 4.23; I 2.17; F 2.81; D 4.02; R 2.96; A 2.42; N 2.9
L22: N 4.04; R 3.62; P 3.91; W 2.57; Y 2.47; Q 3.65; T 3.85; V 3.21; S 4.33
